Literature values in patent US20170240926A1, “METHODS FOR PRENYLATION OF PEPTIDES AND THEIR USE IN OVER-PRODUCTION OF FARNESENE AND GERANYLGERANYL TERPENES” (University of North Texas, priority 2016, published 2017).

Molecular target: FTase (Rattus norvegicus, UniProt Q02293+Q04631)
Settings: 10 μM FPP, 0.4-10 μM dansylated peptide, 25-300 nM FTase, 50 mM HEPPSO pH 7.8, 25° C.

kfarn: 0.46 ± 0.05 s⁻¹
Substance: CFLS: peptide of the form dansyl-TKCxxx with C-terminal CFLS; SCAMPER
